B1: β-lactamase inhibitor B2 antibody (VHH)
VHH: QVQLQESGGGLVQAGGSLRLSCAASGTIFVYPYMGWYRQAPGKEREFVAGIGQGATTYYADSVKGRFTISRDNAKNTVYLQMNSLKPEDTAVYYCAAYRYRDDVRRYGIDRYHTYWGQGTQVTVSS
notes: sdAb from a synthetic naive yeast display library; expressed from pET26b in the E. coli periplasm and purified by chromatography; also called sdAb B2
B2: β-lactamase inhibitor B3 antibody (VHH)
VHH: QVQLQESGGGLVQAGGSLRLSCAASGTIFYYPYMGWYRQAPGKEREFVAGIDYGSTTYYADSVKGRFTISRDNAKNTVYLQMNSLKPEDTAVYYCAVVYLVTRKGASQQDEIYSYWGQGTQVTVSS
notes: sdAb from a synthetic naive yeast display library; expressed from pET26b in the E. coli periplasm and purified by chromatography; also called sdAb B3
B3: β-lactamase inhibitor B6 antibody (VHH)
VHH: QVQLQESGGGLVQAGGSLRLSCAASGTISAVSGMGWYRQAPGKEREFVASINRGSTTNYADSVKGRFTISRDNAKNTVYLQMNSLKPEDTAVYYCAALHGTGRVHVYWGQGTQVTVSS
notes: sdAb from a synthetic naive yeast display library; expressed from pET26b in the E. coli periplasm and purified by chromatography; also called sdAb B6
B4: single domain antibody B1 (VHH)
VHH: QVQLQESGGGLVQAGGSLRLSCAASGNIFTVSSMGWYRQAPGKEREFVAAISDGATTNYADSVKGRFTISRDNAKNTVYLQMNSLKPEDTAVYYCAAYASRVGLTVYWGQGTQVTVSS
notes: sdAb from a synthetic naive yeast display library; expressed from pET26b in the E. coli periplasm and purified by chromatography; also called sdAb B1
B5: β-lactamase inhibitor B4 antibody (VHH)
VHH: QVQLQESGGGLVQAGGSLRLSCAASGTIFAQDYMGWYRQAPGKEREFVASIAYGTITYYADSVKGRFTISRDNAKNTVYLQMNSLKPEDTAVYYCAVYPTPVTDYIYWGQGTQVTVSS
notes: sdAb from a synthetic naive yeast display library; expressed from pET26b in the E. coli periplasm and purified by chromatography; also called sdAb B4
B6: β-lactamase inhibitor B5 antibody (VHH)
VHH: QVQLQESGGGLVQAGGSLRLSCAASGNISDLGTMGWYRQAPGKEREFVAGIGTGSNTYYADSVKGRFTISRDNAKNTVYLQMNSLKPEDTAVYYCAVIAGRSYWIYFYYWGQGTQVTVSS
notes: sdAb from a synthetic naive yeast display library; expressed from pET26b in the E. coli periplasm and purified by chromatography; also called sdAb B5

Legend:
[1] = target: T1, antigenic protein: class A β-lactamase fragment of Mycobacterium abscessus (Blamab gene) with C-terminal TEV … (Mycobacterium abscessus); experiment: cell-based or functional assay
[2] = target: T1, antigenic protein: class A β-lactamase …; experiment: nitrocefin hydrolysis assay with purified enzyme, Lineweaver-Burk
[3] = target: T2, VIM-2 from Pseudomonas aeruginosa, expressed in the periplasm of E. coli BL21(DE3) (Pseudomonas aeruginosa); experiment: nitrocefin assay on E. coli BL21(DE3) cells with the β-lactamase in the periplasm
[4] = target: T3, OXA-48 from Klebsiella pneumoniae, expressed in the periplasm of E. coli BL21(DE3) (Klebsiella pneumoniae, UniProt Q6XEC0 23-265, limits assumed); experiment: as above
T3 construct: Expressed from pET26b(+) with a pelB export signal

[5] = target: T4, KPC-2 from Klebsiella pneumoniae, expressed in the periplasm of E. coli BL21(DE3) (Klebsiella pneumoniae, UniProt Q848S6 25-293); experiment: as above
T4 construct: Expressed from pET26b(+) with a pelB export signal

[6] = target: T2, VIM-2 from Pseudomonas aeruginosa, …; experiment: cell-based or functional assay
[7] = target: T3, OXA-48 from Klebsiella pneumoniae, …; experiment: cell-based or functional assay
[8] = target: T4, KPC-2 from Klebsiella pneumoniae, …; experiment: cell-based or functional assay

Binder	Km (µM), with antibody [1] [µM]	Vmax (µM/min), with antibody [1] [µM/min]	Ki [2] [µM]	Ki [3] [µM]	Ki [4] [µM]	Ki [5] [µM]	also measured
B1	64.4	0.25	2.4	2.9	10.5	0.06	Km(µM), with B2 [6]: 39.6 µM; Vmax(µM/min), with B2 [6]: 0.017 µM/min; Km(µM), with B2 [7]: 6.62 µM; Vmax(µM/min), with B2 [7]: 0.059 µM/min; Km(µM), with B2 [8]: 121 µM; Vmax(µM/min), with B2 [8]: 0.7 µM/min
B2	51.9	0.34	2.7	–	–	–	–
B3	53.3	0.26	4.9	–	–	–	–
B4	42.6	0.26	15.6	–	–	–	–
B5	45.6	0.28	5.2	–	–	–	–
B6	57.3	0.23	3.8	68.9	30.8	0.12	Km(µM), with B5 [6]: 0.97 µM; Vmax(µM/min), with B5 [6]: 0.0084 µM/min; Km(µM), with B5 [7]: 2.26 µM; Vmax(µM/min), with B5 [7]: 0.061 µM/min; Km(µM), with B5 [8]: 2.19 µM; Vmax(µM/min), with B5 [8]: 0.5 µM/min

From patent EP4729537A1 (Universitat Politècnica de València, dated 2024)
